Consider seven molecules from patent publication US20180236053A1 (published 2018).

The term Kd denotes the concentration at which binding is half-saturated. The low end stands for higher affinity, the high end for lower affinity.

This assay concerns the target CD38 antigen on the surface of cells (U266 CD38+, MOLP8, Daudi, T-ALL cell lines, activated T cells) (human, UniProt P28907 1-300).

B1: 29B4 scFv (tested as anti-CD38 CARs, versions V1, V2 and V3) (scFv)
scFv: EVQLVESGGGLVKPGGSLKLSCAASGFTFSDYFMYWVRQTPEKRLEWVAIISDGGIYTYYPDSVKGRFTISRDNAKNNLYLQMSSLKSEDTAMYYCARDGRDDYDGWYFDVWGAGTTVTVSSGGGGSGGGGSGGGGSDIVMTQSHKFMSTSVGDRVNITCKASQDVNTAVAWYQQKPGQSPKLLIYWASTRHAGVPDRFTGSGSGTDYALTISSVQAEDLALYYCQQHYSTPRTFGGGTKLEIK
With B1, binding was put at a Kd of 0.52 nM.

B2: 27B6 scFv (tested as anti-CD38 CARs, versions V1, V2 and V3) (scFv)
scFv: QVQLKQSGPGLVQPSQSLSITCTVSGFSLTSYNIDWVRQSPGKGLEWLGVIWSGGSTDYNAAFISRLKISKDDSKSQVFFKMNSLQSDDTAIYYCARHSPLVSTPDWYFDVWGAGTTVTVSSGGGGSGGGGSGGGGSQIVLTQSPAIMSASPGEKVTMTCSTSSSVSYMHWYQQKSGTSPKRWIYDTSKLASGVPARFSGSGSGTSYSLTINNMEAEDAATYSCQQWSSYPPTFGGGTKLEIK
For the molecule B2, the Kd worked out at 2.2 nM.

B3: GMB005 scFv (tested as anti-CD38 tool CARs, versions V1, V2 and V3) (scFv)
scFv: EVQLLESGGGLVQPGGSLRLSCAVSGFTFNSFAMSWVRQAPGKGLEWVSAISGSGGGTYYADSVKGRFTISRDNSKNTLYLQMNSLRAEDTAVYFCAKDKILWFGEPVFDYWGQGTLVTVSSASGGGGSGGGGSGGGGSEIVLTQSPATLSLSPGERATLSCRASQSVSSYLAWYQQKPGQAPRLLIYDASNRATGIPARFSGSGSGTDFTLTISSLEPEDFAVYYCQQRSNWPPTFGQGTKVEIK
For the molecule B3, the Kd stood at 119 nM.

B4: 25A10 scFv (tested as anti-CD38 CARs, versions V1, V2 and V3) (scFv)
scFv: EVQLQQSGAELVRPGASVKLSCTASGFNIKDSLIHWVKQRPEQGLEWIGWIDPEDDKTKYAPKFQDKATLTADTSSNTAYLQLSTLTSEDTAIYYCVSRYINYYFAYWGQGTTLTVSSGGGGSGGGGSGGGGSDIVMTQSPSSLTVTAGEKVTMSCKSSQSLLHSGNQRNYLTWYQQKPGQPPKLLIYWASTRESGVPDRFTGSGSGTDFTLTISSVQAEDLAVYYCQNDYDYPYTFGGGTKLEIK
B4 had a Kd of 0.25 nM.

B5: 13F11 scFv (tested as anti-CD38 CARs, versions V1, V2 and V3) (scFv)
scFv: QIQLVQSGPELKKPGETVKISCKASGYTFKKYGMNWVKQAPGKGLKWMGWINTNTGEPTYAEEFKGRFAFSLETSASTAYLQINNLKNEDTATYFCARWYYGSTPSSYTMDYWGQGTSVTVSSGGGGSGGGGSGGGGSETTVTQSPASLSVATGEKVTIRCITSTDIDDDMNWYQQKPGEPPKVLISEGNTLRPGVPSRFSSSGYGTDFVFTIENTLSEDVADYYCLQSNNMPYTFGGGTKLEIK
B5 showed a Kd of 0.8 nM.

B6: 16B5 scFv (tested as anti-CD38 CARs, versions V1, V2 and V3) (scFv)
scFv: QAYLQQSGAELVRSGASVKMSCKASGYTFTSYNLHWVKQTPGQGLEWIGYIYPGNGGTNYNQKFKGKATLTADTSSSTAYMQISSLTSEDSAVYFCARGGIYYYGSSLDYWGQGTTLTVSSGGGGSGGGGSGGGGSNIVLTQSPASLAVSLGQRATISCRASESVDNYGTTFMYWYQQKPGQPPKLLIYLASNLESGVPARFSGSGSGTDFTLTIDPVEADDAATYYCQQNKEDPWTFGGGTKLEIK
B6 came in with a Kd of 3.2 nM.

B7: 10F7 scFv (tested as anti-CD38 CARs, versions V1, V2 and V3) (scFv)
scFv: QAYLQQSGAELVRSGASVKMSCKASGYTFTSYNMHWVKQTPGQGLEWIGYIYPGNGGTNYNQKFKDKATLTADTSSSTAYMQISSLTSEDSAVYFCARGGQLGRPWFAYWGQGTLVTVSAGGGGSGGGGSGGGGSNIVLTQSPASLAASPGQRATISCRASESVDSYGNTFMYWYQQKPGQPPKLLIYLASNLESGVPVRFSGSGSRTDFTLTIDPVEADDAATYYCQQNNEDPWTFGGGTKVEIK
Turning to B7, the Kd is 30 nM.
